Reference: patent US20260116920A1 (PEPTIDREAM, published 2026)
Starred links: 1 amine or outer side, 2 acyl side, 3 side chain; linkers in the order of their positions; H or OH if unused. Positions of bridges follow the written chain, without caps; N, C: chain ends. Non-standard residues stand in square brackets, D forms with d. Primed or numbered codes have the meaning given here. No end group written: not given here. *: point of attachment. E(PEG8Me) = (S)-30-amino-27-oxo-2,5,8,11,14,17,20,23-octaoxa-26-azahentriacontane-31-oic acid, COCCOCCOCCOCCOCCOCCOCCOCCNC(=O)CC[C@H](N[*:1])C(=O)[*:2]; E(PEG4Me) = (S)-18-amino-15-oxo-2,5,8,11-tetraoxa-14-azanonadecane-19-oic acid, COCCOCCOCCOCCNC(=O)CC[C@H](N[*:1])C(=O)[*:2]; Phe(4-OMe)(3) = (S)-2-amino-3-(4-methoxyphenyl)propanoic acid (source code F4OMe), COc1ccc(C[C@H](N[*:1])C(=O)[*:2])cc1; F4aao = (S)-2-amino-3-(4-(carboxymethoxy)phenyl)propanoic acid, O=C([C@H](Cc1ccc(OCC(=O)[*:3])cc1)N[*:1])[*:2]; Phe(4-OMe) = F4OMe = (S)-2-amino-3-(4-methoxyphenyl)propanoic acid, COc1ccc(C[C@H](N[*:1])C(=O)[*:2])cc1; E(NHdPEG1Me) = N5-(1,3-dimethoxypropan-2-yl)-L-glutamine, COCC(COC)NC(=O)CC[C@H](N[*:1])C(=O)[*:2]; dkCOmeglumine = N6-(methyl((2S,3R,4R,5R)-2,3,4,5,6-pentahydroxyhexyl)carbamoyl)-D-lysine; Trp(1-CH2CO) = O=C([C@H](Cc1cn(CC(=O)[*:3])c2ccccc12)N[*:1])[*:2]; Trp(5-Cl) = N[C@@H](Cc1c[nH]c2ccc(Cl)cc12)C(=O)O; Nle(6-morpholino) = N[C@@H](CCCCN1CCOCC1)C(=O)O; Phe(3-COOH) = N[C@@H](Cc1cccc(C(=O)O)c1)C(=O)O; Trp(7-aza) = N[C@@H](Cc1c[nH]c2ncccc12)C(=O)O; NH(CH2CH2O)8Me = COCCOCCOCCOCCOCCOCCOCCOCCN*; NMePhe(3-Cl) = CN[C@@H](Cc1cccc(Cl)c1)C(=O)O; NMePhe(4-F) = CN[C@@H](Cc1ccc(F)cc1)C(=O)O; 3Pal(6-NH2) = Nc1ccc(C[C@H](N)C(=O)O)cn1; NMeW = CN[C@@H](Cc1c[nH]c2ccccc12)C(=O)O; Lys(N3) = [N-]=[N+]=NCCCC[C@H](N)C(=O)O; NMeY = CN[C@@H](Cc1ccc(O)cc1)C(=O)O; NMeR = CN[C@@H](CCCNC(=N)N)C(=O)O; NMeF = CN[C@@H](Cc1ccccc1)C(=O)O; 3Pal = N[C@@H](Cc1cccnc1)C(=O)O; 4Pal = N[C@@H](Cc1ccncc1)C(=O)O

Target: T1, human transferrin receptor (hTfR) (human, UniProt P02786 89-760)
T1 construct: used as 0.5 uM hTfR dimer solution, immobilised on an NTA sensor chip (Ni capture plus EDC/NHS coupling); also called human TfR; TfR1
T1 sequence (P02786 89-760 limits assumed): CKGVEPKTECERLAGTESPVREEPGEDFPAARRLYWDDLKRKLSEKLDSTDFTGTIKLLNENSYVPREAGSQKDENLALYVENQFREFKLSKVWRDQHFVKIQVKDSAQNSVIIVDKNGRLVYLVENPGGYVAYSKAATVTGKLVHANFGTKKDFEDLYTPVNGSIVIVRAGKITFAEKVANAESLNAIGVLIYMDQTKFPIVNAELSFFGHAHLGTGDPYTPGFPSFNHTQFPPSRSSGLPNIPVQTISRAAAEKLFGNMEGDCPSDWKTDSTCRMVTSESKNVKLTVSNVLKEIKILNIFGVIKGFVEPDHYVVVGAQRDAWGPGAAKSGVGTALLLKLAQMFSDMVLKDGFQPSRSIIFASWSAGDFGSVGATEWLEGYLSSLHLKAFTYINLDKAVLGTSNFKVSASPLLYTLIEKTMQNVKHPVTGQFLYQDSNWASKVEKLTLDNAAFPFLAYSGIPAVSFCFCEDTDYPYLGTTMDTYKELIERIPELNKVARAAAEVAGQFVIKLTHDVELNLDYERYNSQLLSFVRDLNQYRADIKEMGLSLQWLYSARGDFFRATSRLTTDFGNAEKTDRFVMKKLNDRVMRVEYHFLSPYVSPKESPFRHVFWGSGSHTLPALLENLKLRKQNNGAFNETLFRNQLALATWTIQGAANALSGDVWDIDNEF
Assay: SPR; B = KD 1-100 nM
Summary of the method: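 Recombinant hTfR dimer immobilised on Ni-NTA chip with EDC/NHS coupling; running buffer 10 mM HEPES pH 8.0, 150 mM NaCl, 0.05% Tween 20, 0.1% BSA, 1.0% DMSO. Peptides injected at 5–100 nM in single-cycle kinetics; KD from least-squares sensorgram fitting.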

| Binder | KD |
| --- | --- |
| {CH2CO}-AV[NMeF]VWNY[Phe(4-OMe)]IIR[dR]FYC-NH2 (thioether N-15; not fully specified (residue 14); also: linker PEG4c) [894_0283, listing 1 of 2 here] | 0.001 to 0.1 µM |
| {CH2CO}-AV[NMeF]V[Trp(5-Cl)]NY[Phe(4-OMe)]IIR[dR]FYC-NH2 (thioether N-15; not fully specified (residue 14); also: linker PEG4c, place not given here) [894_0253] | 0.001 to 0.1 µM |
| {CH2CO}-AV[NMePhe(4-F)]V[Trp(5-Cl)]NY[Phe(4-OMe)]IIR[dR]FYC-NH2 (thioether N-15; not fully specified (residue 14); also: linker PEG4c, place not given here) [894_0258] | 0.001 to 0.1 µM |
| {CH2CO}-AV[NMeF]VWNY[Phe(4-OMe)]IIR[dR]FYC-NH2 (thioether N-15; not fully specified (residue 14); also: linker PEG4c) [894_0283, listing 2 of 2 here] | 0.001 to 0.1 µM |
| {CH2CO}-AV[NMePhe(3-Cl)]VWNY[3Pal]IIRE(NH(CH2CH2O)8Me)[4Pal][NMeY]C-NH2 (thioether N-15; also: linker PEG4c) [894_0371] | 0.001 to 0.1 µM |
| {CH2CO}-AV[NMeF]VWNYYIIRRY[NMeY]C-NH2 (thioether N-15; also: linker G-de-de-de-S-S-C(AcNMe), place not given here) [894_0393] | 0.001 to 0.1 µM |
| {CH2CO}-AV[NMePhe(3-Cl)]VWN[3Pal(6-NH2)][3Pal]IIR[E(PEG8Me)][4Pal]YC-NH2 (thioether N-15; not fully specified (residue 14); also: linker PEG4c, place not given here) [894_0375] | 0.001 to 0.1 µM |
| {CH2CO}-AV[NMePhe(3-Cl)]VWN[3Pal(6-NH2)][F4aao]IIR[E(PEG8Me)][4Pal][NMeY]C-NH2 (thioether N-15; also: linker PEG4c, place not given here) [894_0377] | 0.001 to 0.1 µM |
| {CH2CO}-AV[NMeF]VWNYYIIRRY[NMeY]C-NH2 (thioether N-15; also: linker G-de-de-de-de-de-C(AcNMe), place not given here) [894_0394] | 0.001 to 0.1 µM |
| {CH2CO}-AV[NMePhe(3-Cl)]VWN[3Pal(6-NH2)][F4aao]IIR[E(PEG8Me)][Phe(3-COOH)][NMeY]C-NH2 (thioether N-15; also: linker PEG4c, place not given here) [894_0376] | 0.001 to 0.1 µM |
| {CH2CO}-AV[NMePhe(3-Cl)]VWNY[F4aao]IIR[E(PEG8Me)][4Pal]YC-NH2 (thioether N-15; not fully specified (residue 14); also: linker PEG4c, place not given here) [894_0373] | 0.001 to 0.1 µM |
| {CH2CO}-AV[NMePhe(3-Cl)]VWNY[F4aao]IIR[E(PEG8Me)][Phe(3-COOH)]YC-NH2 (thioether N-15; not fully specified (residue 14); also: linker PEG4c, place not given here) [894_0372] | 0.001 to 0.1 µM |
| {CH2CO}-AV[NMePhe(3-Cl)]V[Trp(1-CH2CO)]NY[F4aao]IIQR[4Pal][NMeY]C-NH2 (thioether N-15; also: linker PEG4c, place not given here) [894_0419] | 0.001 to 0.1 µM |
| {CH2CO}-AV[NMePhe(3-Cl)]V[Trp(1-CH2CO)]NY[F4aao]II[E(PEG4Me)]RF[NMeY]C-NH2 (thioether N-15; also: linker PEG4c, place not given here) [894_0395] | 0.001 to 0.1 µM |
| {CH2CO}-AV[NMePhe(3-Cl)]V[Trp(1-CH2CO)]NY[F4aao]II[E(NHdPEG1Me)]RF[NMeY]C-NH2 (thioether N-15; also: linker PEG4c, place not given here) [894_0396] | 0.001 to 0.1 µM |
| {CH2CO}-AV[NMePhe(3-Cl)]VWN[3Pal(6-NH2)][3Pal]IIR[E(PEG8Me)][Phe(3-COOH)]YC-NH2 (thioether N-15; not fully specified (residue 14); also: linker PEG4c, place not given here) [894_0374] | 0.001 to 0.1 µM |
| {CH2CO}-AV[NMePhe(4-F)]V[NMeW]NY[Phe(4-OMe)]II[NMeR][dR]FYC-NH2 (thioether N-15; not fully specified (residue 14); also: linker PEG4c, place not given here) [894_0262] | 0.001 to 0.1 µM |
| {CH2CO}-AV[NMePhe(4-F)]V[Trp(5-Cl)]NY[Phe(4-OMe)]II[NMeR][dR]FYC-NH2 (thioether N-15; not fully specified (residue 14); also: linker PEG4c, place not given here) [894_0259] | 0.001 to 0.1 µM |
| {CH2CO}-AV[NMeF]VWNY[Phe(4-OMe)]II[NMeR]RFYC-NH2 (thioether N-15; not fully specified (residue 14); also: linker PEG4c) [894_0285] | 0.001 to 0.1 µM |
| {CH2CO}-AV[NMePhe(4-F)]V[NMeW]NY[Phe(4-OMe)]IIR[dR]FYC-NH2 (thioether N-15; not fully specified (residue 14); also: linker PEG4c, place not given here) [894_0261] | 0.001 to 0.1 µM |

The remaining lines, values ahead:

| KD | Binder |
| --- | --- |
| 0.001 to 0.1 µM | {CH2CO}-AV[NMeF]VWNY[F4aao]IIRRY[NMeY]C-NH2 (thioether N-15; also: linker G-de-de-de-ds-ds-KN3, attachment not given here) [894_3169] |
| 0.001 to 0.1 µM | AVFVWNYAIIRRAYC (3:MeF3C,8:3Py,13:4Py,14:MeY; linker G-de-de-de-ds-ds-KN3; ClAc-1/C15 thioether ring; C-term NH2) [894_3193] |
| 0.001 to 0.1 µM | {CH2CO}-AV[NMePhe(3-Cl)]V[Trp(7-aza)]NY[F4aao]II[E(PEG8Me)][Nle(6-morpholino)][4Pal][NMeY]C-NH2 (thioether N-15; also: linker PEG4c, attachment not given here) [894_0426] |
| 0.001 to 0.1 µM | {CH2CO}-AV[NMePhe(3-Cl)]V[Trp(1-CH2CO)]NY[F4aao]IIQ[Nle(6-morpholino)][4Pal][NMeY]C-NH2 (thioether N-15; also: linker PEG4c, attachment not given here) [894_0420] |
| 0.001 to 0.1 µM | {CH2CO}-AV[NMePhe(3-Cl)]V[Trp(7-aza)]NY[F4aao]IIQ[Nle(6-morpholino)][4Pal][NMeY]C-NH2 (thioether N-15; also: linker PEG4c, attachment not given here) [894_0425] |
| 0.001 to 0.1 µM | {CH2CO}-AV[NMePhe(3-Cl)]V[Trp(7-aza)]NY[F4aao]IIQ[Nle(6-morpholino)][Phe(3-COOH)][NMeY]C-NH2 (thioether N-15; also: linker PEG4c, attachment not given here) [894_0428] |
| 0.001 to 0.1 µM | {CH2CO}-AV[NMePhe(3-Cl)]VWNY[3Pal]IIRR[4Pal][NMeY]CG-{dkCOmeglumine-dkCOmeglumine-dkCOmeglumine-dS-dS-Lys(N3)-NH2} (thioether N-15) [894_3192] |
| 0.001 to 0.1 µM | {CH2CO}-AV[NMePhe(3-Cl)]VWNY[Phe(4-OMe)(3)]IIKRF[NMeY]C (thioether N-15; not fully specified (C-terminus)) [894_3150] |
| 0.001 to 0.1 µM | {CH2CO}-AV[NMePhe(3-Cl)]V[Trp(7-aza)]NY[F4aao]IIQR[4Pal][NMeY]C-NH2 (thioether N-15; also: linker PEG4c, attachment not given here) [894_0424] |
| 0.001 to 0.1 µM | {CH2CO}-AV[NMeF]V[Trp(1-CH2CO)]NY[F4aao]IIRRY[NMeY]C-NH2 (thioether N-15; also: linker G-de-de-de-ds-ds-KN3, attachment not given here) [894_3170] |
| 0.001 to 0.1 µM | {CH2CO}-AV[NMePhe(3-Cl)]V[Trp(1-CH2CO)]NY[F4aao]IIQR[Phe(3-COOH)][NMeY]C-NH2 (thioether N-15; also: linker PEG4c, attachment not given here) [894_0421] |
